Here are results for six molecules from patent US20060270591A1, “Androgen receptor coregulators” (priority 2002, published 2006).

Assay type in all cases: cell-based, human
For test [1], the system named is AR. Description: AR transactivation reporter assay (CAT/luciferase) (Example 3). As to conditions: for effect of ARA70N construct on AR transactivation: COS-1 cells, 10 nM T, MMTV-LUC. Here is the method: 21. […] Further adding GAL-DBD (lane 1 and 2) or GAL-DBD-ARA70N with wild type (lane 3 and 4) or mutant (lane 5-8) FXXLF motifs to the cells. (B) Effect of wild type and mutant FXXLF motifs ARA70N on AR transactivation in COS-1 cells. […] 0.5 ng SV40-Renila Luciferase was used as an internal control. Relative luciferase activity was calculated by dual luciferase system.
411. Human prostate cancer DU145 and PC-3 cells were maintained in Dulbecco's Minimum Essential Medium (DMEM) containing penicillin (25 U/ml), streptomycin (25 μg/ml), and 5% fetal calf serum (FCS). Human LNCaP cells were maintained in RPMI containing penicillin (25 U/ml), streptomycin (25 μg/ml), and 10% FCS. Transfections were performed using the calcium phosphate precipitation method, as previously described (Dynlacht et al. (1991) Cell 66, 563-576). Briefly, 4×10^5 cells were plated on 60-mm dishes 24 hours before transfection, and the medium was changed to DMEM with 5% charcoal-dextran stripped FCS (CS-FBS) one hour before transfection. Transfection medium contained a constant amount of reporter plasmid and indicated amounts of pSG5-receptor, ARA70, or pCMX-GAL fusion construct using pSG5 as a carrier to provide equal amounts of transfected DNA. […] After another 24 hours, the cells were harvested for chloramphenicol transferase (CAT) or luciferase assays. At least three independent experiments were carried out in each case. Superfect (Qiagen) was used for transfection in LNCaP cells. The transfection conditions followed the manufacturer's protocol. Cell extracts were prepared and assayed for CAT or luciferase activity (Promega) and normalized against β-galactosidase or Renilla luciferase activity as indicated. All data were the mean±SD results from three to six independent experiments.
Target sequence in this assay (P10275 whole entry, the tested form may be a part): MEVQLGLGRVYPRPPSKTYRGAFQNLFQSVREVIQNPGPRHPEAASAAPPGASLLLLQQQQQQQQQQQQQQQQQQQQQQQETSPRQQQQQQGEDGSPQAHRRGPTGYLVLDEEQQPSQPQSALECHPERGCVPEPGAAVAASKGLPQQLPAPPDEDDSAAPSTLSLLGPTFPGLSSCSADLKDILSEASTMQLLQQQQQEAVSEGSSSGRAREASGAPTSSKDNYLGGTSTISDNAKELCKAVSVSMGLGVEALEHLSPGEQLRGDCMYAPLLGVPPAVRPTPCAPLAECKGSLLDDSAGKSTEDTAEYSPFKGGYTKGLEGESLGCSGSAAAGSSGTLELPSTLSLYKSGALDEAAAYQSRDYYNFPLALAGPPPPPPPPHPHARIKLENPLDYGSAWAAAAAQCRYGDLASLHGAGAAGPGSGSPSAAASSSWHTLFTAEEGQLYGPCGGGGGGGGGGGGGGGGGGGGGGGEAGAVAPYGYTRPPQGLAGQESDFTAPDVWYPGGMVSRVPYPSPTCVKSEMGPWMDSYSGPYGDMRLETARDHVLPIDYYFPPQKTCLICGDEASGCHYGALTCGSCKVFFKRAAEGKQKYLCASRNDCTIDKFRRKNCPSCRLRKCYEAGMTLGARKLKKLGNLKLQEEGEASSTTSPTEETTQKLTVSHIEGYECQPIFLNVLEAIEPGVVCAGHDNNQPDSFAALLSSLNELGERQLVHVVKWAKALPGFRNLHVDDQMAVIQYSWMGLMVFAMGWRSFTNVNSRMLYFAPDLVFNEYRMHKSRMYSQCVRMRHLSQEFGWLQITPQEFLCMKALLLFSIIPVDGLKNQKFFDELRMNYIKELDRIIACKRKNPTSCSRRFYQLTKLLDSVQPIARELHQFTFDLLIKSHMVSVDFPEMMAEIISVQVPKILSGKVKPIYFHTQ
In general terms: Reporter assays use an easily measured gene product as a stand-in for the process of interest.

Test [2] relates to AR. Briefly: AR transactivation assay, MMTV-CAT reporter, transient transfection (Example 1). The conditions noted are these: for AR transcription activity with cotransfected coactivator: wild type AR. How it is done: Human prostate cancer DU145 or PC3 cells, or human lung carcinoma cells NCI H1299 were grown in Dulbecco's minimal essential medium (DMEM) containing penicillin (25 U/ml), streptomycin (25˜g/ml), and 5% fetal calf serum (FCS). One hour before transfection, the medium was changed to DMEM with 5% charcoal-stripped FCS. […] A β-galactosidase expression plasmid, pCMV-β-gal, was used as an internal control for transfection efficiency.
The medium was changed 24 hr posttransfection and the cells treated with either steroid hormones or hydroxyflutamide, and cultured for an additional 24 hr. Cells were harvested and assayed for CAT activity after the cell lysates were normalized by using β-galactosidaseas an internal control. Chloramphenicol acetyltransferase (CA) activity was visualized by PhosphorImager (Molecular Dynamics) and quantitated by ImageQuant software (Molecular Dynamics).

Another test has as its system PSA. Description: PSA northern and western blot in LNCaP cells (Example 3). The conditions noted are these: 1 nM DHT. The text has this: 20. […] (A) ARA70-N2 can serve as a dominant-negative to inhibit coregulator enhanced AR activity in DU145 cells. The pCMV-β-gal construct was used as an internal control, and the relative CAT activity was normalized by the β-gal activity. Data represent the mean±S.D. of four independent experiments. (B) ARA70-N2 can serve as a dominant-negative repressor to compete with the function of endogenous coregulators and inhibit AR transactivation in LNCaP cells. (C) ARA70-N2 can serve as a dominant-negative repressor to inhibit the expression of PSA mRNA in LNCaP cells. Human prostate cancer LNCaP cells were transfected with 4 and 8 μg of ARA70-N2 for 3 hours. […] The blot containing 20 μg total RNA in each lane was hybridized with a PSA specific cDNA probe. […] (D) ARA70-N2 can inhibit PSA protein expression in a dominant-negative manner. 4×10^6 LNCaP cells were plated on 100-mm dishes 24 hours before transfection. […] The blot containing 70 μg total cell lysate in each lane was hybridized with a PSA specific antibody. The same membrane was hybridized with a specific antibody for β-actin for equal protein loading.
In general terms: A western blot detects proteins with antibodies after separation by electrophoresis.

Test [3] concerns AR. Briefly: Mammalian two-hybrid CAT assay, interaction with AR in DU145 cells (Example 1). The text has this: 368. The mammalian two-hybrid system employed was essentially the protocol of Clontech (California), with the following modifications. In order to obtain better expression, the GAL4 DBD (a.a. 1-147) was fused to pSGS under the control of an SV40 promoter, and named pGALO.
369. The hinge and LBD of wtAR were then inserted into pGALO. Similarly, the VPI6 activation domain was fused to pCMX under the control of a CMV promoter, and designated pCMX-VP16 (provided by Dr. R. M. Evan).
Target sequence in this assay (P10275 669-900 limits assumed): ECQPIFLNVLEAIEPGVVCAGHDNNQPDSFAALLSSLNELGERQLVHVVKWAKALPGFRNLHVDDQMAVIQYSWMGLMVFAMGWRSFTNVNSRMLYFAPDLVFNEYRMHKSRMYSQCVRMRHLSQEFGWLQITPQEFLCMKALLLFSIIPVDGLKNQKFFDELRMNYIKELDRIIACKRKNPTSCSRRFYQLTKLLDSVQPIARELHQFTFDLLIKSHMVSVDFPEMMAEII

B1: pSG5-ARA70N-AXXLF: ARA70N with FXXLF motif mutated to AXXLF (protein)
chain: MNTFQDQSGSSSNREPLLRCSDARRDLELAIGGVLRAEQQIKDNLREVKAQIHSCISRHLECLRSREVWLYEQVDLIYQLKEETLQQQAQQLYSLLGQFNCLTHQLECTQNKDLANQVSVCLERLGSLTLKPEDSTVLLFEADTITLRQTITTFGSLKTIQIPEHLMAHASSANIGPFLEKRGCISMPEQKSASGIVAVPFSEWLLGSKPASGYQAPYIPSTDPQDWLTQKQTLENSQTSSRACNFFNNVGGNLKGLENWLLKSEKSSYQKCNSHSTTSSFSIEMEKVGDQELPDQDEMDLSDWLVTPQESHKLRKPENGSRETSEKFKLLFQSYNVNDWLVKTDSCTNCQGNQPKGVEIENLGNLKCLNDHLEAKKPLSTPSMVTEDWLVQNHQDPCKVE
In the case of B1, the “effect of ARA70N construct on AR transactivation” value in the test on AR [1] is “marginal induction effect”.

B2: pSG5-ARA70N-FXXAA: ARA70N with FXXLF motif mutated to FXXAA (protein)
chain: MNTFQDQSGSSSNREPLLRCSDARRDLELAIGGVLRAEQQIKDNLREVKAQIHSCISRHLECLRSREVWLYEQVDLIYQLKEETLQQQAQQLYSLLGQFNCLTHQLECTQNKDLANQVSVCLERLGSLTLKPEDSTVLLFEADTITLRQTITTFGSLKTIQIPEHLMAHASSANIGPFLEKRGCISMPEQKSASGIVAVPFSEWLLGSKPASGYQAPYIPSTDPQDWLTQKQTLENSQTSSRACNFFNNVGGNLKGLENWLLKSEKSSYQKCNSHSTTSSFSIEMEKVGDQELPDQDEMDLSDWLVTPQESHKLRKPENGSRETSEKFKLLFQSYNVNDWLVKTDSCTNCQGNQPKGVEIENLGNLKCLNDHLEAKKPLSTPSMVTEDWLVQNHQDPCKVE
Consider B2, for which the “effect of ARA70N construct on AR transactivation” value in the test on AR [1] is given as “marginal induction effect”.

B3: ARA55251-444: C-terminus of ARA55 (a.a. 251-444 of SEQ ID NO:4) (protein)
chain: EKDGAPFCPECYFERFSPRCGFCNQPIRHKMVTALGTHWHPEHFCCVSCGEPFGDEGFHEREGRPYCRRDFLQLFAPRCQGCQGPILDNYISALSLLWHPDCFVCRECFAPFSGGSFFEHEGRPLCENHFHARRGSLCPTCGLPVTGRCVSALGRRFHPDHFACTFCLRPLTKGSFQERAGKPYCQPCFLKLFG
modifications: Homo sapien
B3: the “effect on AR transcription activity” value in the test with AR [2] (PC3 cells, endogenous ARA55, 10 nM DHT) is given as “dramatically reduced AR transcription activity”.

B4: ARA70-N2: ARA70 region between amino acids 176-401, dominant-negative repressor (protein, UniProt Q13772 176-401, looked up, fragment)
chain: GPFLEKRGCISMPEQKSASGIVAVPFSEWLLGSKPASGYQAPYIPSTDPQDWLTQKQTLENSQTSSRACNFFNNVGGNLKGLENWLLKSEKSSYQKCNSHSTTSSFSIEMEKVGDQELPDQDEMDLSDWLVTPQESHKLRKPENGSRETSEKFKLLFQSYNVNDWLVKTDSCTNCQGNQPKGVEIENLGNLKCLNDHLEAKKPLSTPSMVTEDWLVQNHQDPCKVE
Turning to B4, the “effect on ARA70N-enhanced AR transactivation” value in the test with AR [1] (DU145 cells) was “inhibit ARA70N-enhanced AR transactivation”. For the same molecule, in the test on PSA, the “effect on PSA mRNA and protein expression” value is given as “repressed PSA mRNA”.

B5: ARA55: AR coactivator, 444 aa polypeptide with high homology to mouse hic5 (protein)
chain: ANFNQSGNIADSSLSFTFTNSSNGPNLITTQTNSQALSQPIASSNVHDNFMNNEITASKIDDGNNSKPLSPGWTDQTAYNAFGITTGMFNTTTMDDVYNYLFDDEDTPPNPKKEMPRSGAPKERPAEPLTPPPSYGHQPTGQSGESSGASGDKDHLYSTVCKPRSPKPAAPAAPPFSSSSGVLGTGLCELDRLLQELNATQFNITDEIMSQFPSSKVASGEQKEDQSEDKKRPSLPSSPSPGLPKASATSATLELDRLMASLPDFRVQNHLPASGPTQPPVVSSTNEGSPSPPEPTAKGSLDTMLGLLQSDLSRRGVPTQAKGLCGSCNKPIAGQVVTALGRAWHPEHFVCGGCSTALGGSSFFEKDGAPFCPECYFERFSPRCGFCNQPIRHKMVTALGTHWHPEHFCCVSCGEPFGDEGFHEREGRPYCRRDFLQLFAPRCQGCQGPILDNYISALSLLWHPDCFVCRECFAPFSGGSFFEHEGRPLCENHFHARRGSLCPTCGLPVTGRCVSALGRRFHPDHFACTFCLRPLTKGSFQERAGKPYCQPCFLKLFG
As for B5, the “enhancement of transactivation of wtAR, mARt877s and mARe708k” value with AR [2] (DHT 10^−11 to 10^−8 M, all three receptors) is given as 4-8 fold. In the test on AR [2] (DU145 cells, 10 nM DHT, AR:ARA55 up to 1:4.5), the “further increase of the DHT induction” value is recorded as 5.3 fold. Moreover, the “AR transcription activity with coactivator” value with AR [2] (DU145 cells, 10 nM DHT, with ARA55) worked out at 22.8 fold. The “increase of AR transcription activity upon transfection with exogenous ARA55” value in the test on AR [2] (PC3 cells) came out at 4 fold.

B6: Rb: retinoblastoma protein (protein, UniProt P06400 2-928, looked up)
Retinoblastoma-associated …: PPKTPRKTAATAAAAAAEPPAPPPPPPPEEDPEQDSGPEDLPLVRLEFEETEEPDFTALCQKLKIPDHVRERAWLTWEKVSSVDGVLGGYIQKKKELWGICIFIAAVDLDEMSFTFTELQKNIEISVHKFFNLLKEIDTSTKVDNAMSRLLKKYDVLFALFSKLERTCELIYLTQPSSSISTEINSALVLKVSWITFLLAKGEVLQMEDDLVISFQLMLCVLDYFIKLSPPMLLKEPYKTAVIPINGSPRTPRRGQNRSARIAKQLENDTRIIEVLCKEHECNIDEVKNVYFKNFIPFMNSLGLVTSNGLPEVENLSKRYEEIYLKNKDLDARLFLDHDKTLQTDSIDSFETQRTPRKSNLDEEVNVIPPHTPVRTVMNTIQQLMMILNSASDQPSENLISYFNNCTVNPKESILKRVKDIGYIFKEKFAKAVGQGCVEIGSQRYKLGVRLYYRVMESMLKSEEERLSIQNFSKLLNDNIFHMSLLACALEVVMATYSRSTSQNLDSGTDLSFPWILNVLNLKAFDFYKVIESFIKAEGNLTREMIKHLERCEHRIMESLAWLSDSPLFDLIKQSKDREGPTDHLESACPLNLPLQNNHTAADMYLSPVRSPKKKGSTTRVNSTANAETQATSAFQTQKPLKSTSLSLFYKKVYRLAYLRLNTLCERLLSEHPELEHIIWTLFQHTLQNEYELMRDRHLDQIMMCSMYGICKVKNIDLKFKIIVTAYKDLPHAVQETFKRVLIKEEEYDSIIVFYNSVFMQRLKTNILQYASTRPPTLSPIPHIPRSPYKFPSSPLRIPGGNIYISPLKSPYKISEGLPTPTKMTPRSRILVSIGESFGTSEKFQKINQMVCNSDRVLKRSAEGSNPPKPLKKLRFDIEGSDEADGSKHLPGESKFQQKLAEMTSTRTRMQKQKMNDSMDTSNKEEK
B6: the “AR transcription activity with cotransfected coactivator” value in the test with AR [2] (DU145 cells, 1 nM DHT) is 21 fold; with AR [2] (DU145 cells, 10 nM E2), 12 fold. Also, in the test with AR [3], the “induced CAT activity in mammalian two-hybrid assay” value was 3 fold.
